For 66 sequences, switch fluorescence ratio results are on record in the supplement of paper PMC10126150.

± gives the standard deviation of the averaged measurements.

In this data set the test system is ATP. The data set can be described thus: switch fluorescence ratio, 500 uM ATP over buffer (Cy3 cluster intensity, sum of 5 cycles each) (fold (ratio)); higher = stronger signal-on switching upon ATP binding; sequences stand for … in TCGTCGGCAGCGTCAGATGTGTATAAGAGACAGTTTTTTTTTTTTTTTTTTTTTTTTT…TC. As to conditions: aptamer strand: ATP DNA aptamer (quencher-CACCTGGGGGAGTATTGCGGAGGAAGG + anchor), 100 nM annealed; ATP concentration: 500 uM. The method in brief:
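Five buffer/ATP imaging cycles were run on Cy3-labelled switching-strand clusters on a modified Illumina MiSeq flow-cell, with NaOH stripping and re-annealing between cycles. In each cycle, clusters annealed to 100 nM quencher-labelled ATP aptamer were imaged in selection buffer, then after 15 min with 500 uM ATP at 22 °C. Per cluster, the fluorescence ratio is summed target-cycle over summed buffer-cycle Cy3 intensity, averaged per switch-domain sequence. Only clusters within 100-1000 RFU were kept.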
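Further: ATP exposure 15 min at 22 °C before imaging.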

TGGGGCTCAG: the switch fluorescence ratio was 0.986 ± 0.027.

Turning to AGCACATTTG, the switch fluorescence ratio worked out at 0.97 ± 0.017.

Turning to GGTCCATTTT, the switch fluorescence ratio stood at 0.969 ± 0.017.

Turning to TAGACAATTT, the switch fluorescence ratio is 1 ± 0.00074.

On to TAATAACTCT, for which the switch fluorescence ratio stood at 1 ± 0.061.

As to GGGTATAAGG, the switch fluorescence ratio was determined as 0.989 ± 0.026.

In the case of TAAAGAGATG, the switch fluorescence ratio was found to be 1.011 ± 0.0072.

On to GGTTGGTGCG, for which the switch fluorescence ratio was determined as 1.1 ± 0.074.

Consider ATTGAGCCTG, for which the switch fluorescence ratio came out at 0.991 ± 0.022.

GTATGCTTTT: the switch fluorescence ratio came out at 1.034 ± 0.0043.

In the case of GTCAAAGGGT, the switch fluorescence ratio was determined as 0.99 ± 0.022.

TTTTCCTGCG: the switch fluorescence ratio was 1.65 ± 0.64.

Turning to AGTAGGGGTG, the switch fluorescence ratio was found to be 1.01 ± 0.032.

Regarding TTGGCGCGCA, the switch fluorescence ratio was 1.023 ± 0.0016.

CATTATGCGG: the switch fluorescence ratio turned out to be 1 ± 0.025.

As for AAGGGTCTAA, the switch fluorescence ratio was 0.978 ± 0.037.

For CGGGTGGGG, the switch fluorescence ratio is 1.03 ± 0.071.

As to GTTGTCCGGG, the switch fluorescence ratio was found to be 1 ± 0.027.

Take TCCGGGGGAC: the switch fluorescence ratio was 1.52 ± 0.59.

Turning to TTACATAAGG, the switch fluorescence ratio was 1.006 ± 0.0048.

For CTCATGGTTG, the switch fluorescence ratio came out at 0.9638 ± 0.007.

TCTTTGAAGA: the switch fluorescence ratio amounted to 1.14 ± 0.24.

As for CAACAACGCG, the switch fluorescence ratio was determined as 0.992 ± 0.02.

Regarding ACATAAGGTA, the switch fluorescence ratio came to 1.04 ± 0.03.

Turning to ATGCATGGGA, the switch fluorescence ratio amounted to 0.987 ± 0.02.

As to GATTTTGCCG, the switch fluorescence ratio is 1.11 ± 0.1.

On to TTTAGTACTG, for which the switch fluorescence ratio was 1.05 ± 0.032.

With GTGCCAACGT, the switch fluorescence ratio worked out at 0.981 ± 0.035.

For the sequence TGAAGTACTT, the switch fluorescence ratio was 1.06 ± 0.011.

As to ATGAGATTCG, the switch fluorescence ratio is 0.99 ± 0.026.

As to TTAAAGTGGT, the switch fluorescence ratio was 0.9789 ± 0.00047.

Turning to GGGCAGCCCG, the switch fluorescence ratio was found to be 0.98 ± 0.014.

Regarding GGTGGTCGGT, the switch fluorescence ratio was found to be 0.9787 ± 0.0066.

Consider TTTAGTAGGG, for which the switch fluorescence ratio amounted to 1 ± 0.027.

TCCAGGGGTG: the switch fluorescence ratio worked out at 1.65 ± 0.025.

Take TGATGAATGA: the switch fluorescence ratio was 1.001 ± 0.0021.

As to AAACTCGCGC, the switch fluorescence ratio came out at 1.07 ± 0.012.

In the case of GGCCTGGCTA, the switch fluorescence ratio stood at 0.974 ± 0.02.

As for GTTGGATGGT, the switch fluorescence ratio is 0.964 ± 0.019.

As for TTTTCGGGGC, the switch fluorescence ratio turned out to be 0.981 ± 0.035.

For the sequence TAGGGCAGTA, the switch fluorescence ratio turned out to be 0.99 ± 0.046.

In the case of TAAATGGTTG, the switch fluorescence ratio worked out at 0.9863 ± 0.0094.

On to ATAGCAGTCG, for which the switch fluorescence ratio amounted to 1.04 ± 0.077.

CGTTGGCGGT: the switch fluorescence ratio came out at 1.02 ± 0.043.

Turning to CCGGTATAAT, the switch fluorescence ratio amounted to 1.144 ± 0.0026.

As to CTAAGGTAAG, the switch fluorescence ratio was 0.981 ± 0.049.

Consider TGTCGGATTT, for which the switch fluorescence ratio came out at 1.13 ± 0.24.

On to TTTTGCTCGG, for which the switch fluorescence ratio turned out to be 0.998 ± 0.025.

TGCGTAAGGG: the switch fluorescence ratio was found to be 1.03 ± 0.011.

For ACTGCTAATT, the switch fluorescence ratio turned out to be 1.08 ± 0.039.

As to GAACTAGCGC, the switch fluorescence ratio stood at 1 ± 0.019.

Turning to AGGCCACTCG, the switch fluorescence ratio is 0.978 ± 0.0036.

Consider GGTTAATTTT, for which the switch fluorescence ratio was 1.02 ± 0.028.

As for CTCGTGAACT, the switch fluorescence ratio came out at 1.048 ± 0.0022.

For the sequence GGAGGGTTGG, the switch fluorescence ratio amounted to 0.998 ± 0.059.

Take TTAGGCGTGG: the switch fluorescence ratio is 1.017 ± 0.006.

GAGGGTTGCG: the switch fluorescence ratio is 0.973 ± 0.011.

In the case of ATGTAGGCCA, the switch fluorescence ratio turned out to be 1.04 ± 0.053.

Take GGTTGGCGTC: the switch fluorescence ratio came to 0.955 ± 0.041.

Consider ATAAGTTGGT, for which the switch fluorescence ratio came out at 0.987 ± 0.046.

On to GGGACCAGAT, for which the switch fluorescence ratio was determined as 1.01 ± 0.033.

In the case of AAACATAAAG, the switch fluorescence ratio is 0.995 ± 0.027.

On to ATAGTTATCT, for which the switch fluorescence ratio is 1.03 ± 0.026.

As for TGCCGGTTGC, the switch fluorescence ratio was 0.99 ± 0.12.

On to ATGGCTTAAG, for which the switch fluorescence ratio came out at 1.006 ± 0.0055.

Turning to TTTGCGCGTT, the switch fluorescence ratio was 0.985 ± 0.018.
